Laboratory results: USRE47150 (Bayer, dated 2018)

T1: human tissue factor pathway inhibitor (TFPI) (human, UniProt P10646 29-304, limits assumed)
T1 construct: bought; also called hTFPI; human TFPI
T1 sequence (looked up): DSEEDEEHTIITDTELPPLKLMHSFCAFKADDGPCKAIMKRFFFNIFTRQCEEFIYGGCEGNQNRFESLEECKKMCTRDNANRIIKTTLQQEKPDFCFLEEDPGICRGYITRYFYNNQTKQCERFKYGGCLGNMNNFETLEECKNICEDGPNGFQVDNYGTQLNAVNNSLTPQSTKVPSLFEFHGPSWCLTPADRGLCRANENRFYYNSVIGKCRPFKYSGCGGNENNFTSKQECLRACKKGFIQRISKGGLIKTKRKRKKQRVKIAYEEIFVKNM

T2: mouse tissue factor pathway inhibitor (TFPI) (mouse, UniProt O54819 29-289, limits assumed)
T2 construct: bought; also called mTFPI; murine TFPI
T2 sequence (looked up): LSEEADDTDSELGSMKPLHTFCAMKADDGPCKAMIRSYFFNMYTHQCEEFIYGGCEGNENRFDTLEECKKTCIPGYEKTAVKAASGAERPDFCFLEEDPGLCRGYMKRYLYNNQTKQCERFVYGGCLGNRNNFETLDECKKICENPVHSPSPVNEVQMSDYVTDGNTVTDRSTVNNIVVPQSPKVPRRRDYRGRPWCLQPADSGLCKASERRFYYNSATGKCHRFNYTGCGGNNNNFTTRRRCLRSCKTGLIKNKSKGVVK


Tests used:
[1] = target: T1, human tissue factor pathway inhibitor …; assay: competitive ELISA
[2] = target: T2, mouse tissue factor pathway inhibitor …; assay: competitive ELISA
[3] = target: T1, human tissue factor pathway inhibitor …; assay: SPR, TFPI immobilized

Binder | variant/wild-type [1] | variant/wild-type [2] | Improvement [3] | Kd [3] | koff [3] | kon [3]
2A8 HC_F104Y (Fab, V domains shown) VH: QVQLVESGGGLVQPGGSLRLSCAASGFTFRSYGMSWVRQAPGKGLEWVSSIRGSSSSTYYADSVKGRFTISRDNSKNTLYLQMNSLRAEDTAVYYCARKYRYWYDYWGQGTLVTVSS VL: DIELTQPPSVSVAPGQTARISCSGDNLRNYYAHWYQQKPGQAPVVVIYYDNNRPSGIPERFSGSNSGNTATLTISGTQAEDEADYYCQSWDDGVPVFGGGTKLTVLG | 2 ratio | 1.5 ratio |  |  |  | 
2A8 LC_D92T (Fab, V domains shown) VH: QVQLVESGGGLVQPGGSLRLSCAASGFTFRSYGMSWVRQAPGKGLEWVSSIRGSSSSTYYADSVKGRFTISRDNSKNTLYLQMNSLRAEDTAVYYCARKYRYWFDYWGQGTLVTVSS VL: DIELTQPPSVSVAPGQTARISCSGDNLRNYYAHWYQQKPGQAPVVVIYYDNNRPSGIPERFSGSNSGNTATLTISGTQAEDEADYYCQSWDTGVPVFGGGTKLTVLG | 2.6 ratio | 1.2 ratio |  |  |  | 
2A8 HC_I51D (Fab, V domains shown, also called 2A8-12) VH: QVQLVESGGGLVQPGGSLRLSCAASGFTFRSYGMSWVRQAPGKGLEWVSSDRGSSSSTYYADSVKGRFTISRDNSKNTLYLQMNSLRAEDTAVYYCARKYRYWFDYWGQGTLVTVSS VL: DIELTQPPSVSVAPGQTARISCSGDNLRNYYAHWYQQKPGQAPVVVIYYDNNRPSGIPERFSGSNSGNTATLTISGTQAEDEADYYCQSWDDGVPVFGGGTKLTVLG | 3.9 ratio | 1.4 ratio | 1.63 fold | 1.37 nM | 0.00495 s⁻¹ | 3.61e+06 M⁻¹ s⁻¹
2A8 LC_N51V (Fab, V domains shown, also called 2A8-13) VH: QVQLVESGGGLVQPGGSLRLSCAASGFTFRSYGMSWVRQAPGKGLEWVSSIRGSSSSTYYADSVKGRFTISRDNSKNTLYLQMNSLRAEDTAVYYCARKYRYWFDYWGQGTLVTVSS VL: DIELTQPPSVSVAPGQTARISCSGDNLRNYYAHWYQQKPGQAPVVVIYYDVNRPSGIPERFSGSNSGNTATLTISGTQAEDEADYYCQSWDDGVPVFGGGTKLTVLG | 4.4 ratio | 2 ratio | 4.32 fold | 0.518 nM | 0.0022 s⁻¹ | 4.26e+06 M⁻¹ s⁻¹
2A8 LC_A32N (Fab, V domains shown, also called 2A8-11) VH: QVQLVESGGGLVQPGGSLRLSCAASGFTFRSYGMSWVRQAPGKGLEWVSSIRGSSSSTYYADSVKGRFTISRDNSKNTLYLQMNSLRAEDTAVYYCARKYRYWFDYWGQGTLVTVSS VL: DIELTQPPSVSVAPGQTARISCSGDNLRNYYNHWYQQKPGQAPVVVIYYDNNRPSGIPERFSGSNSGNTATLTISGTQAEDEADYYCQSWDDGVPVFGGGTKLTVLG | 3.5 ratio | 2 ratio | 1.47 fold | 1.52 nM | 0.0041 s⁻¹ | 2.7e+06 M⁻¹ s⁻¹
2A8 HC_S35L (Fab, V domains shown) VH: QVQLVESGGGLVQPGGSLRLSCAASGFTFRSYGMLWVRQAPGKGLEWVSSIRGSSSSTYYADSVKGRFTISRDNSKNTLYLQMNSLRAEDTAVYYCARKYRYWFDYWGQGTLVTVSS VL: DIELTQPPSVSVAPGQTARISCSGDNLRNYYAHWYQQKPGQAPVVVIYYDNNRPSGIPERFSGSNSGNTATLTISGTQAEDEADYYCQSWDDGVPVFGGGTKLTVLG | 1.7 ratio | 1.5 ratio |  |  |  | 
2A8 HC_S54D (Fab, V domains shown) VH: QVQLVESGGGLVQPGGSLRLSCAASGFTFRSYGMSWVRQAPGKGLEWVSSIRGDSSSTYYADSVKGRFTISRDNSKNTLYLQMNSLRAEDTAVYYCARKYRYWFDYWGQGTLVTVSS VL: DIELTQPPSVSVAPGQTARISCSGDNLRNYYAHWYQQKPGQAPVVVIYYDNNRPSGIPERFSGSNSGNTATLTISGTQAEDEADYYCQSWDDGVPVFGGGTKLTVLG | 1.7 ratio | 1.2 ratio |  |  |  | 
2A8 HC_S55R (Fab, V domains shown, also called 2A8-8) VH: QVQLVESGGGLVQPGGSLRLSCAASGFTFRSYGMSWVRQAPGKGLEWVSSIRGSRSSTYYADSVKGRFTISRDNSKNTLYLQMNSLRAEDTAVYYCARKYRYWFDYWGQGTLVTVSS VL: DIELTQPPSVSVAPGQTARISCSGDNLRNYYAHWYQQKPGQAPVVVIYYDNNRPSGIPERFSGSNSGNTATLTISGTQAEDEADYYCQSWDDGVPVFGGGTKLTVLG | 4.4 ratio | 2.1 ratio | 2.44 fold | 0.917 nM | 0.00394 s⁻¹ | 4.3e+06 M⁻¹ s⁻¹
2A8 LC_P54L (Fab, V domains shown) VH: QVQLVESGGGLVQPGGSLRLSCAASGFTFRSYGMSWVRQAPGKGLEWVSSIRGSSSSTYYADSVKGRFTISRDNSKNTLYLQMNSLRAEDTAVYYCARKYRYWFDYWGQGTLVTVSS VL: DIELTQPPSVSVAPGQTARISCSGDNLRNYYAHWYQQKPGQAPVVVIYYDNNRLSGIPERFSGSNSGNTATLTISGTQAEDEADYYCQSWDDGVPVFGGGTKLTVLG | 5.3 ratio | 2.7 ratio |  |  |  | 
2A8 HC_G33K (Fab, V domains shown) VH: QVQLVESGGGLVQPGGSLRLSCAASGFTFRSYKMSWVRQAPGKGLEWVSSIRGSSSSTYYADSVKGRFTISRDNSKNTLYLQMNSLRAEDTAVYYCARKYRYWFDYWGQGTLVTVSS VL: DIELTQPPSVSVAPGQTARISCSGDNLRNYYAHWYQQKPGQAPVVVIYYDNNRPSGIPERFSGSNSGNTATLTISGTQAEDEADYYCQSWDDGVPVFGGGTKLTVLG | 1.8 ratio | 0.7 ratio |  |  |  | 
2A8 HC_S55A (Fab, V domains shown) VH: QVQLVESGGGLVQPGGSLRLSCAASGFTFRSYGMSWVRQAPGKGLEWVSSIRGSASSTYYADSVKGRFTISRDNSKNTLYLQMNSLRAEDTAVYYCARKYRYWFDYWGQGTLVTVSS VL: DIELTQPPSVSVAPGQTARISCSGDNLRNYYAHWYQQKPGQAPVVVIYYDNNRPSGIPERFSGSNSGNTATLTISGTQAEDEADYYCQSWDDGVPVFGGGTKLTVLG | 2 ratio | 1.2 ratio |  |  |  | 
2A8 LC_V96M (Fab, V domains shown) VH: QVQLVESGGGLVQPGGSLRLSCAASGFTFRSYGMSWVRQAPGKGLEWVSSIRGSSSSTYYADSVKGRFTISRDNSKNTLYLQMNSLRAEDTAVYYCARKYRYWFDYWGQGTLVTVSS VL: DIELTQPPSVSVAPGQTARISCSGDNLRNYYAHWYQQKPGQAPVVVIYYDNNRPSGIPERFSGSNSGNTATLTISGTQAEDEADYYCQSWDDGVPMFGGGTKLTVLG | 3.5 ratio | 1.5 ratio |  |  |  | 
2A8 LC_D92S (Fab, V domains shown) VH: QVQLVESGGGLVQPGGSLRLSCAASGFTFRSYGMSWVRQAPGKGLEWVSSIRGSSSSTYYADSVKGRFTISRDNSKNTLYLQMNSLRAEDTAVYYCARKYRYWFDYWGQGTLVTVSS VL: DIELTQPPSVSVAPGQTARISCSGDNLRNYYAHWYQQKPGQAPVVVIYYDNNRPSGIPERFSGSNSGNTATLTISGTQAEDEADYYCQSWDSGVPVFGGGTKLTVLG | 3.8 ratio | 2.6 ratio |  |  |  | 
2A8 LC_D91R (Fab, V domains shown) VH: QVQLVESGGGLVQPGGSLRLSCAASGFTFRSYGMSWVRQAPGKGLEWVSSIRGSSSSTYYADSVKGRFTISRDNSKNTLYLQMNSLRAEDTAVYYCARKYRYWFDYWGQGTLVTVSS VL: DIELTQPPSVSVAPGQTARISCSGDNLRNYYAHWYQQKPGQAPVVVIYYDNNRPSGIPERFSGSNSGNTATLTISGTQAEDEADYYCQSWRDGVPVFGGGTKLTVLG | 3.1 ratio | 2 ratio |  |  |  | 
2A8 LC_N52G (Fab, V domains shown) VH: QVQLVESGGGLVQPGGSLRLSCAASGFTFRSYGMSWVRQAPGKGLEWVSSIRGSSSSTYYADSVKGRFTISRDNSKNTLYLQMNSLRAEDTAVYYCARKYRYWFDYWGQGTLVTVSS VL: DIELTQPPSVSVAPGQTARISCSGDNLRNYYAHWYQQKPGQAPVVVIYYDNGRPSGIPERFSGSNSGNTATLTISGTQAEDEADYYCQSWDDGVPVFGGGTKLTVLG | 3.4 ratio | 1.5 ratio |  |  |  | 
2A8 LC_V96G (Fab, V domains shown) VH: QVQLVESGGGLVQPGGSLRLSCAASGFTFRSYGMSWVRQAPGKGLEWVSSIRGSSSSTYYADSVKGRFTISRDNSKNTLYLQMNSLRAEDTAVYYCARKYRYWFDYWGQGTLVTVSS VL: DIELTQPPSVSVAPGQTARISCSGDNLRNYYAHWYQQKPGQAPVVVIYYDNNRPSGIPERFSGSNSGNTATLTISGTQAEDEADYYCQSWDDGVPGFGGGTKLTVLG | 3.2 ratio | 1.2 ratio |  |  |  | 
2A8 LC_V96W (Fab, V domains shown) VH: QVQLVESGGGLVQPGGSLRLSCAASGFTFRSYGMSWVRQAPGKGLEWVSSIRGSSSSTYYADSVKGRFTISRDNSKNTLYLQMNSLRAEDTAVYYCARKYRYWFDYWGQGTLVTVSS VL: DIELTQPPSVSVAPGQTARISCSGDNLRNYYAHWYQQKPGQAPVVVIYYDNNRPSGIPERFSGSNSGNTATLTISGTQAEDEADYYCQSWDDGVPWFGGGTKLTVLG | 4 ratio | 4.3 ratio |  |  |  | 
